Source: publication PMC11147780, “Vaccination induces broadly neutralizing antibody precursors to HIV gp41” (Nature Immunology, 2024)

Tests used:
Conditions in all cases: both partners purified
[1] = biological target: T1, 10E8-B1 epitope scaffold (synthetic construct (resurfaced …)); test: SPR; Carterra LSA, HC30M or CMDP chips; antibodies as ligands held by an amine-coupled capture antibody, scaffolds as analytes (monovalent Kd); 1x HBS-EP+ pH 7.4 with 1 mg/ml bovine serum albumin; Langmuir model; values of the main text figures
T1 chain: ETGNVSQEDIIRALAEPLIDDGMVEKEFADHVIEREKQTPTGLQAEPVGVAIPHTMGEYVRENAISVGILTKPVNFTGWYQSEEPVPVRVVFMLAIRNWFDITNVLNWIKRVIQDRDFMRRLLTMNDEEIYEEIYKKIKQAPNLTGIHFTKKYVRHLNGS

[2] = biological target: T2, T117v2 epitope scaffold (designed scaffold T117v2 with HIV-1 …); test: SPR; values told in the text, methods or extended data without a main figure; instrument not told (Carterra LSA, ProteOn XPR36 with GLC chip or Biacore 4000 with CM5 chip)
T2 chain: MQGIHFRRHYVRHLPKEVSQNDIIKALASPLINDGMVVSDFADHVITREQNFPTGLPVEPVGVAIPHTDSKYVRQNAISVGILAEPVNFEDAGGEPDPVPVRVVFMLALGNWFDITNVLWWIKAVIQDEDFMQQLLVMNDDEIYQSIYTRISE

[3] = biological target: T3, 10E8-GT10.2 epitope scaffold (designed scaffold 10E8-GT10.2 with …, N-linked glycosylation sites added (positions not given)); test: as above
T3 chain: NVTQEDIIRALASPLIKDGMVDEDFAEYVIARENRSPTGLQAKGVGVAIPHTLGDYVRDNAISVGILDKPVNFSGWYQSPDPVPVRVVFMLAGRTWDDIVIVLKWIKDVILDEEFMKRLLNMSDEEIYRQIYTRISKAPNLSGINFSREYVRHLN

[4] = biological target: T4, 10E8-GT10.1 epitope scaffold (synthetic construct, circularly …, N-linked glycosylation sites added (positions not given)); test: SPR; Carterra LSA, HC30M or CMDP chips; antibodies as ligands held by an amine-coupled capture antibody, scaffolds as analytes (monovalent Kd); 1x HBS-EP+ pH 7.4 with 1 mg/ml bovine serum albumin; Langmuir model; values of the main text figures
T4 chain: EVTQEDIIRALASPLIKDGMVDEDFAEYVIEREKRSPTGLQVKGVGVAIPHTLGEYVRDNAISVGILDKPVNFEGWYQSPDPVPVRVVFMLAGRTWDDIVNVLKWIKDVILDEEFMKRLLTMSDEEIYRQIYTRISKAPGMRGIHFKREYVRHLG

B1: mature 10E8 broadly neutralizing antibody (antibody, V domains shown)
VH: EVQLVESGGGLVKPGGSLRLSCSASGFDFDNAWMTWVRQPPGKGLEWVGRITGPGEGWSVDYAAPVEGRFTISRLNSINFLYLEMNNLRMEDSGLYFCARTGKYYDFWSGYPPGEEYFQDWGRGTLVTVSS
VL: SYELTQETGVSVALGRTVTITCRGDSLRSHYASWYQKKPGQAPILLFYGKNNRPSGVPDRFSGSASGNRASLTISGAQAEDDAEYYCSSRDKSGSRLSVFGGGTKLTVL
notes: also called 10E8 bnAb; source: FreeStyle 293F cells or ExpiCHO (high-throughput), purified (protein A)
B1 showed a Kd [1] of 0.08 nM and a Kd [2] of 0.39 nM.

B2: NHP W3-01 Fab (Fab, V domains shown)
VH: QVQLQESGPGLVKPSETLSLTCAVSGGSFSSDWWGWIRQPPGKGLEWIGTIYGSGGSNYLNPSLKSRVTLSVDTSKNQFSLRLSSVTAADTAVYYCARGSGRYNIWTGYYTPFDAFDFWGRGLRVTVSS
VL: SYELTQPPSMSVSPGQTARITCGGDNLGSKYVHWYQQKPAQAPVLVIYYDSDRPSGIPERFSGSKSGNTATLTISGVEAGDEADYYCQVWDSSSDHYIFGAGTRLTVL
notes: also called 10E8-GT10.2-induced macaque antibody with a YxIW motif from week 3
Work on B2 yielded a Kd [3] of 4.8 nM.

B3: 10E8 unmutated common ancestor antibody (antibody, V domains shown)
VH: not shown
VL: SSELTQDPAVSVALGQTVRITCQGDSLRSYYASWYQQKPGQAPVLVIYGKNNRPSGIPDRFSGSSSGNTASLTITGAQAEDEADYYCNSRDSSGNHLVVFGGGTKLTVL
notes: also called 10E8 UCA; proposed 10E8 UCA; source: FreeStyle 293F cells or ExpiCHO (high-throughput), purified (protein A)
Binder B3 has a Kd [4] of ~600 nM.
